# Experimental data published in publication PMC7265321 (The Journal of Cell Biology, 2020).
# T1: Katanin with MEI-1 S92D (6xHis-MEI-1 S92D / Strep-MEI-2) (C. elegans, UniProt P34808 1-472; O44740 1-280, S92D)
# T1 sequence (looked up) 1: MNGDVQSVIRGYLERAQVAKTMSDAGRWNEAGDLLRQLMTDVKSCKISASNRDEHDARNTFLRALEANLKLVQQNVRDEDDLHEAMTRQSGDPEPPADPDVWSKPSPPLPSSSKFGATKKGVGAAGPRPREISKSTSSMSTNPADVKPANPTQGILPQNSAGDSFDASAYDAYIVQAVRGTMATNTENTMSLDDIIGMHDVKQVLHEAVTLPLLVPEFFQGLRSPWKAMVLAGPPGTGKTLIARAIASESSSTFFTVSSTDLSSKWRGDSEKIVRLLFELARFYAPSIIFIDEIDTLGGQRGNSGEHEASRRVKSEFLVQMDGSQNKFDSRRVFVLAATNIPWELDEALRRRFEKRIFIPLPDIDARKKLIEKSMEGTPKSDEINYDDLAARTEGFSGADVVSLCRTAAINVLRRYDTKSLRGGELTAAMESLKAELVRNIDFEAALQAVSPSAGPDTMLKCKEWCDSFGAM
# T1 sequence (looked up) 2: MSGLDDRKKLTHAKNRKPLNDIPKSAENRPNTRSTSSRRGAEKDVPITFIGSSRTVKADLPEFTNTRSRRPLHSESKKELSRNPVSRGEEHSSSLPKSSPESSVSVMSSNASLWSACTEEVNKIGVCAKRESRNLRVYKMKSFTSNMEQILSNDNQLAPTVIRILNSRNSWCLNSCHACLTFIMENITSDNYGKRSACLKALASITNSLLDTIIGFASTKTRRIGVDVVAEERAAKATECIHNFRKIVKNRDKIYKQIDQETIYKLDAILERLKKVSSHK
# T2: MEI-1 S92-aaPho-6xHis (C. elegans, UniProt P34808 1-472, phosphoserine at 92 (100% by mass spectrometry))
# T2 sequence (looked up): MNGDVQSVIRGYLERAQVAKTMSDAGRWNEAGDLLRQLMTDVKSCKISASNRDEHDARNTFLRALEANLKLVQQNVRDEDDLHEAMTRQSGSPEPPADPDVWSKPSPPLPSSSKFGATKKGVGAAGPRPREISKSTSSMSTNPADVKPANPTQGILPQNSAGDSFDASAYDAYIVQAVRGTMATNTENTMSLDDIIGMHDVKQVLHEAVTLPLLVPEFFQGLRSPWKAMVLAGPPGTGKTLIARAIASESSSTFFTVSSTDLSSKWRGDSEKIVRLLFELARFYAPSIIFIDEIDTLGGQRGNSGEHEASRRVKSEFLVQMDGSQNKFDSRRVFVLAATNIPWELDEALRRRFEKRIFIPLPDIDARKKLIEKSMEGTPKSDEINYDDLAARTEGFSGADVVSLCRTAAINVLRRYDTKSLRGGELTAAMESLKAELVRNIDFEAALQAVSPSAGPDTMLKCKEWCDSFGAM
# T3: 6xHis-MEI-1 S92D (C. elegans, UniProt P34808 1-472, S92D)
# T3 sequence (looked up): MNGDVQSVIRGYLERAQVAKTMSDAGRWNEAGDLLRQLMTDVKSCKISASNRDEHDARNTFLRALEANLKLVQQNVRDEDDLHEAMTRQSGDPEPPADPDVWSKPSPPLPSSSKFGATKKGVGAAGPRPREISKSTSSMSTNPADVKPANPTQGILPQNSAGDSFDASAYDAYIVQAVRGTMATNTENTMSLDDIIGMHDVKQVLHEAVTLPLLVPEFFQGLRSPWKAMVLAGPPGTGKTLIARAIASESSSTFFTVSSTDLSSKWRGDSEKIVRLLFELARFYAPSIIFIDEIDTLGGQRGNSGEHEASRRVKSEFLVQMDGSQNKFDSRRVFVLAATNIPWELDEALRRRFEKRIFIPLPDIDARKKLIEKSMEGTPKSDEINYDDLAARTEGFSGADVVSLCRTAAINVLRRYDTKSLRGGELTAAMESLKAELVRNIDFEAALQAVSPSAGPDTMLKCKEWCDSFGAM
# Key:
# [1] = target: MEL-26 (UniProt Q94420); assay: native dot blot of Katanin; settings: reference: unmodified wild type; sites S92
# [2] = target: MEL-26 (UniProt Q94420); assay: Far-Western after SDS-PAGE; settings: reference: unmodified wild type; sites S92
# [3] = target: T1, Katanin with MEI-1 S92D (6xHis-MEI-1 …); assay: overlay or dot blot
# [4] = target: T2, MEI-1 S92-aaPho-6xHis; assay: far-Western
# [5] = target: T3, 6xHis-MEI-1 S92D; assay: far-Western
Molecule,binding against the reference [1],binding against the reference [2],binding result [3],binding result [4],binding result [5]
MEI-1 (Katanin p60 catalytic subunit) (from UniProt P34808) S92-aaPho (phosphoserine by genetic code expansion),stronger,stronger,,,
"GST-MEL-26 (natural protein, C. elegans, UniProt Q94420 1-395, looked up) MEPRIDGGVFIGGIGNSGNEMCSNGVPALGVSSQTEIKVEKVQHTWTVKNFSHCYQEYLENFVYLQRGDEQLTWSIKIYPKGNGENNKDFVFLCLNRVINNNVKAGKIGFKSQFKLRTAENKDIEMRIHPNPSHSDYVSYIKRDVLFPQIMPRDMIIVNVEIDVAVETITTTNEPIQFEPTNSEQQLIEDYQRLFSQELLCDFAINVNGKIIRAHKAVLAARSPVFNAMLTHQDTDEAKSSMMYINDMDYDVIYEMVYYIYCGRCNKDITDMATALLIAADKYRLEELKSHCEKYLVENINIENACSLLIIGDLYSAPKLRKRAVTYILARPKNVTGTPGWEDILKGHPNLITDIFSQIDRQSSTGATSSVSNLPGVPMDIPGITGNIVPPPSGL",,,binds,binds,binds
